Measured values as given in patent publication US10246503B2, “Method of improving the pharmacokinetic profile of a therapeutic polypeptide and the use thereof” (BEIJING ANXINHUAIDE BIOTECH. CO., LTD, priority 2012, dated 2019).
Changes are numbered by the printed parent chain. Names may count otherwise.

B1: GLP-1(A8G/G22E/R36G)-Fn8-p246-COL19NC2 (ligand)
chain: HGEGTFTSDVSSYLEEQAAKEFIAWLVKGGGSGGGSGGGSGGGSGGGSGSGGAVPPPTDLRFTNIGPDTMRVTWAPPPSIDLTNFLVRYSPVKNEEDVAELSISPSDNAVVLTNLLPGTEYVVSVSSVYEQHESTPLRGRQKTGGGGSGGGSGSGSESGSGGGSTSSGTGSETESPGSGSESGSGPSSAGSGSGSESGSGSGSSGPGSTGGSGSESGSGPGSSGTGGTATGSGSESGSGPGSSGPGSTGSGSGSESGSGSGSSGTGSTGGSGSESGSGPGSPRPGSTGTGSGSESGSGPGSSERGSAGGSGSESGSGTSESSASGSTGGSGSESGSGSESGSGSGSESGSGPESPGSGGSGSESGSGTSGSTGSGSESGSGGGSGGGSGGGIPADAVSFEEIKKYINQEVLRIFEERMAVFLSQLKLPAAMLAAQAYGRP
B2: GLP-1-Fn7-COL18NC1 (ligand)
chain: HAEGTFTSDVSSYLEGQAAKEFIAWLVKGRGGGGSGGGGTPLSPPTNLHLEANPDTGVLTVSWERSTTPDITGYRITTTPTNGQQGNSLEEVVHADQSSCTFDNLSPGLEYNVSVYTVKDDKESVPISDTIIPAGGGSGGGASSGVRLWATRQAMLGQVHEVPEGWLIFVAEQEELYVRVQNGFRKVQLEARTPLPRG
B3: GLP-1(A8G/G22E/R36G)-Fn8-p271-COL18NC1 (ligand)
chain: HGEGTFTSDVSSYLEEQAAKEFIAWLVKGGGSGGGSGGGSGGGSGGGSGSGGAVPPPTDLRFTNIGPDTMRVTWAPPPSIDLTNFLVRYSPVKNEEDVAELSISPSDNAVVLTNLLPGTEYVVSVSSVYEQHESTPLRGRQKTGGGGSGGGSGGSGSESGSGGGSTSSGTGSETESPGGSGSESGSGGPSSAGSGGSGSESGSGGSGSSGPGSTGGGSGSESGSGGPGSSGTGGTATGGSGSESGSGGPGSSGPGSTGSGGSGSESGSGGSGSSGTGSTGGGSGSESGSGGPGSPRPGSTGTGGSGSESGSGGPGSSERGSAGGGSGSESGSGGTSESSASGSTGGGSGSESGSGGSESGSGGSGSESGSGGPESPGSGGGSGSESGSGGTSGSTGGSGSESGSGGGGSGGGSGGGASSGVRLWATRQAMLGQVHEVPEGWLIFVAEQEELYVRVQNGFRKVQLEARTPLPRG
B4: GLP-1(A8G/G22E)-Fn8-p246-COL18NC1 (ligand)
chain: HGEGTFTSDVSSYLEEQAAKEFIAWLVKGRGSGGGSGGGSGGGSGGGSGSGGAVPPPTDLRFTNIGPDTMRVTWAPPPSIDLTNFLVRYSPVKNEEDVAELSISPSDNAVVLTNLLPGTEYVVSVSSVYEQHESTPLRGRQKTGGGGSGGGSGSGSESGSGGGSTSSGTGSETESPGSGSESGSGPSSAGSGSGSESGSGSGSSGPGSTGGSGSESGSGPGSSGTGGTATGSGSESGSGPGSSGPGSTGSGSGSESGSGSGSSGTGSTGGSGSESGSGPGSPRPGSTGTGSGSESGSGPGSSERGSAGGSGSESGSGTSESSASGSTGGSGSESGSGSESGSGSGSESGSGPESPGSGGSGSESGSGTSGSTGSGSESGSGGGSGGGSGGGASSGVRLWATRQAMLGQVHEVPEGWLIFVAEQEELYVRVQNGFRKVQLEARTPLPRG
B5: GLP-1(A8G/G22E/R36G)-Fn8-p246-COL18NC1 (ligand)
chain: B4 chain with R30G
B6: GLP-1(A8G/G22E/R36S)-Fn8-p246-COL18NC1 (ligand)
chain: B4 chain with R30S
B7: GLP-1(A8V/G22E)-Fn8-p246-COL18NC1 (ligand)
chain: B4 chain with G2V
B8: GLP-1(A8S/G22E)-Fn8-p246-COL18NC1 (ligand)
chain: B4 chain with G2S
B9: GLP1(A8G/G22E/R36G)-Fn8-p246-ACRP30 (ligand)
chain: HGEGTFTSDVSSYLEEQAAKEFIAWLVKGGGSGGGSGGGSGGGSGGGSGSGGAVPPPTDLRFTNIGPDTMRVTWAPPPSIDLTNFLVRYSPVKNEEDVAELSISPSDNAVVLTNLLPGTEYVVSVSSVYEQHESTPLRGRQKTGGGGSGGGSGSGSESGSGGGSTSSGTGSETESPGSGSESGSGPSSAGSGSGSESGSGSGSSGPGSTGGSGSESGSGPGSSGTGGTATGSGSESGSGPGSSGPGSTGSGSGSESGSGSGSSGTGSTGGSGSESGSGPGSPRPGSTGTGSGSESGSGPGSSERGSAGGSGSESGSGTSESSASGSTGGSGSESGSGSESGSGSGSESGSGPESPGSGGSGSESGSGTSGSTGSGSESGSGGGSGGGSGGVYRSAFSVGLETRVTVPNVPIRFTKIFYNQQNHYDGSTGKFYCNIPGLYYFSYHITVYMKDVKVSLFKKDKAVLFTYDQYQEKNVDQASGSVLLHLEVGDQVWLQVYGDGDHNGLYADNVNDSTFTGFLLYHDTN
B10: GLP-1(A8G/G22E/R36G)-Fn8-p245-COL18NC1 (ligand)
chain: HGEGTFTSDVSSYLEEQAAKEFIAWLVKGGGSGGGSGGGSGGGSGGGSGSGGAVPPPTDLRFTNIGPDTMRVTWAPPPSIDLTNFLVRYSPVKNEEDVAELSISPSDNAVVLTNLLPGTEYVVSVSSVYEQHESTPLRGRQKTGGGGSGGGSGSGSTSESGGSTSSGTGSETESPGSGSESTSGPSSAGSGSTSESGSGSGSSGPGSTGGSTSGSESGPGSSGTGGTATGSESGSTSGPGSSGPGSTGSGSTSESGSGSGSSGTGSTGGSESGSTSGPGSPRPGSTGTGSTSGSESGPGSSERGSAGGSESTSGSGTSESSASGSTGGSTSGSESGSESGSGSTSESGSGPESPGSGGSGSTSESGTSGSTGSESTSGSGGGSGGGSGGGASSGVRLWATRQAMLGQVHEVPEGWLIFVAEQEELYVRVQNGFRKVQLEARTPLPRG
B11: GLP-1(A8G/G22E/R36G)-TNCfn3-p246-COL18NC1 (ligand)
chain: HGEGTFTSDVSSYLEEQAAKEFIAWLVKGGGSGGGSGGGSGGGSGGGSGSGGRLDAPSQIEVKDVTDTTALITWFKPLAEIDGIELTYGIKDVPGDRTTIDLTEDENQYSIGNLKPDTEYEVSLISRRGDMSSNPAKETFTTGGGGSGGGSGSGSESGSGGGSTSSGTGSETESPGSGSESGSGPSSAGSGSGSESGSGSGSSGPGSTGGSGSESGSGPGSSGTGGTATGSGSESGSGPGSSGPGSTGSGSGSESGSGSGSSGTGSTGGSGSESGSGPGSPRPGSTGTGSGSESGSGPGSSERGSAGGSGSESGSGTSESSASGSTGGSGSESGSGSESGSGSGSESGSGPESPGSGGSGSESGSGTSGSTGSGSESGSGGGSGGGSGGGASSGVRLWATRQAMLGQVHEVPEGWLIFVAEQEELYVRVQNGFRKVQLEARTPLPRG
B12: GLP-1(A8G/G22E/R36G)-Fn8-p246-COL15NC1 (ligand)
chain: HGEGTFTSDVSSYLEEQAAKEFIAWLVKGGGSGGGSGGGSGGGSGGGSGSGGAVPPPTDLRFTNIGPDTMRVTWAPPPSIDLTNFLVRYSPVKNEEDVAELSISPSDNAVVLTNLLPGTEYVVSVSSVYEQHESTPLRGRQKTGGGGSGGGSGSGSESGSGGGSTSSGTGSETESPGSGSESGSGPSSAGSGSGSESGSGSGSSGPGSTGGSGSESGSGPGSSGTGGTATGSGSESGSGPGSSGPGSTGSGSGSESGSGSGSSGTGSTGGSGSESGSGPGSPRPGSTGTGSGSESGSGPGSSERGSAGGSGSESGSGTSESSASGSTGGSGSESGSGSESGSGSGSESGSGPESPGSGGSGSESGSGTSGSTGSGSESGSGGGSGGGSGGNLVTAFSNMDDMLQKAHLVIEGTFIYLRDSTEFFIRVRDGWKKLQLGELIPIPA

Target: human GLP-1 receptor (GLP-1R) (human, UniProt P43220 24-463)
Assay: cell-based or functional assay

| EC50 (nM) measured by cAMP assay [nM] | Binder |
| --- | --- |
| 0.6 | B1 |
| 2.2 | B2 |
| 0.4 | B3 |
| 0.5 | B4 |
| 0.4 | B5 |
| 0.4 | B6 |
| 0.5 | B7 |
| 0.6 | B8 |
| 0.6 | B9 |
| 0.5 | B10 |
| 0.5 | B11 |
| 0.5 | B12 |
